T1: human TREM2 truncated stalk peptide (aa 149-163) (human)
T1 sequence (peptide, biotinylated (site not stated)): SFEDAHVEHSISRSL

T2: human TREM2 full length stalk region peptide (aa 129-172) (human)
T2 sequence (peptide, biotinylated (site not stated)): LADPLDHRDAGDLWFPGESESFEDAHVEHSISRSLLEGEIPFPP


How the values were obtained:
Assay in all cases: ELISA on biotinylated peptide captured by streptavidin; A450 normalised to isotype control
[1] = biological target: mouse TREM2 truncated stalk peptide (aa 149-163) (mouse) (UniProt Q99NH8)
[2] = biological target: T1, human TREM2 truncated stalk peptide (aa 149-163) (human)
[3] = biological target: T2, human TREM2 full length stalk region peptide (aa 129-172) (human)

| Binder | fold over background (A450) [1] [fold] | fold over background (A450) [2] [fold] | fold over background (A450) [3] [fold] |
| --- | --- | --- | --- |
| CL0020107 (antibody, V domains shown) VH: QVQLQQPGAELVKPGASVKMSCRASGYTFTNYWISWVKQRPGQGLEWIGDIYPHSTSTNYNERFRSKATLTVDKSSTTAYMQLSSLTSEDSAVYYCAREGFGISAWGQGTTLTVSS VL: QIVLTQSPAIMSASPGEKVTITCSATSSVSYMHWFQQKPGTSPKLWIYSTSNLASGVPARFSGSGSGTSHSLTISRMEAEDAATYYCQQRSSYPLTFGSGTKLELK | 1.6 | – | – |
| CL0020113 (antibody, V domains shown) VH: QIQLVQSGPELKKPGESLKISCKASGYTFTDYAMQWVKQAPGKGLQYMGWINTQTGKPTYADDFKERFVFSLETSASTAYLKINNLKNDDMATYLCARSYGGEYNWIAYWGQGTLVTVSS VL: DIVMTQTPSSQAVSAGEKVTMNCKSSQSLLYNENKKNYLAWYQQKPGQSPKLLIYWASTRESGVPDRFIGSGSGTDFTLTISSVQAEDLAVYYCQQSYNFPPTFGGGTKLELK | 1.3 | – | – |
| CL0020096 (antibody, V domains shown) VH: QIQLVQSGPELRKPGETVKISCKASGYTFTTYGMSWVKQAPGKGLKWMGWINTYSGLPRHSDDFKGRFAFSLETSASTAYLQINNLKNEDTATYFCAREVYYGSRKTAWFAYWGQGTLVTVSA VL: DLVMSQSPSSLAVSVGERVTMSCKSSQSLLYSNDQKNYLAWYQQIPGQSPKLLIYWASTRESGVPDRFTGSGSGTDFTLTISSVKAEDLAVYFCQQYYSYPPTFGAGTKLELK | 1.3 | 2.2 | – |
| CL0020103 (antibody, V domains shown) VH: EVQLQQSGPELVKPGASVKISCKTSGYTFTEYTMHWVKESHGKSLEWIGGINPNKGGSSYNQKFKGKATLTVDKSSSTAYMDLRRLTSEDSAVYYCARGGYEYYALDYWGQGTSVTVSS VL: DIVMSQSPSSLTVSVGERVTMSCKSSQSLLYSRNQKNYLAWYQQKPGQSPKLLIYWASTRESGVPDRFTGSGSGTDFSLTISSVKAEDLAVYYCQQYYSYPPTFGGGTKLEIK | 1.8 | – | – |
| CL0020139 (antibody, V domains shown) VH: EVQLQQSGPELVKPGASVKMSCKAPGYSFTSYLMNWVKQKPGQGLEWIGYINPYSAGSNYNEKFKDKATLTSDKSSSTAYMELRSLTSEDSAVYFCARSSYRYGFDYWGQGTTLTVSS VL: DIQMTQSSSSFSVSLGDRVTITCKASEDIYNRLAWYQQKPGNAPRLLISGATSLETGVPSRFSGSGSGKDYTLSITSLQTEDVATYSCQQYWSTPWTFGGGTKLEIK | 1.6 | – | – |
| CL0020124 (antibody, V domains shown) VH: EVQLQQSGPVLVKPGASVKMSCKPSGYTFTDYYMNWVKQSHGKSLEWIGSINPYTGGSSYNQKFRGKATLTVDKSSSTAYMELNSLTSEDSAVYYCARGSYYSNLGFAYWGQGTLVTVSA VL: DVQLTQSPSYLTASPGETITINCRASKSISKYLAWYQEKPGKTNKLLISSGSTLQSGIPSRFSGSGSGTDFTLTISSLEPEDFAMYYCQQYSEYPFTFGSGTKLEIK | 1.7 | – | 2.1 |

The remaining lines, values ahead:

| fold over background (A450) [1] [fold] | fold over background (A450) [2] [fold] | fold over background (A450) [3] [fold] | Binder |
| --- | --- | --- | --- |
| 1.4 | – | – | CL0020162 (antibody, V domains shown) VH: QIQLVQSGPELKKPGESLKISCKASGYTFTDYAMQWVKQAPEKGLQYMGWINTQTGKPTYADDFKERFVFSLETSATTAYLQINNLKNEDMATYFCVRSYNNYENWFAYWGQGTLVTVSS VL: DIVMTQSPSSLAVSAGETVTINCKSSQSLLYSGNQKNYLAWYQQKPGQSPKVLIYWASTRQFGVPDRFIGSGSGTDFTLTISSVQAEDLAIYYCQQYYNSPITFGSGTKLEIK |
| 1.4 | 2.1 | – | CL0020141 (antibody, V domains shown) VH: EVTLVESGGGLVQPGGSLRLSCATSGFTFTDYYMSWVRQPPGKALEWLGFIRDKANGYTTDYSASVKGRFTISRDNSQNILYLQMNTLRAEDSATYYCSRLLRAQGFAYWGQGTLVTVSA VL: DIVMSQSPSSLGVSIGEKVIMSCTSGQSLLYSNNQKNYLAWYQQKPGQSPKLLIYWASTRESGVPDRFTGSGSGTDFTLTINSVKAEDLAVYYCQQYYRNPFTFGSGTKLEIK |
| 0.9 | 3 | – | CL0020188 (antibody, V domains shown) VH: EVKLLDSGGGLVQAGGSLRLSCAGSGFTFTDFYMSWIRQPPGKAPEWLGVIRNKANGYTAGYNPSVKGRFTISRDNTQNILYLQMNTLRAEDTAIYYCARLTYGFDYWGQGVMVTVSS VL: DIVMTQGALPNPVPSGESASITCQSSKSLLHSNGKTYLNWYLQRPGQSPQLLIYWMSTRASGVSDRFSGSGSGTDFTLKISSVEAEDVGVYYCQQFLEYPFTFGSGTKLEIK |
| 1.5 | – | – | CL0020164 (antibody, V domains shown) VH: EVKLLESGGGLVQPGGSLRLSCAASGFTFTDFYMSWIRQPPGKAPEWLGVIRNKANGFTTEYNTSVKGRFTISRDYTQNILHLQTNTLRAEDTAIYYCARLTYGFDYWGQGVMVTVSS VL: DIVMTQGALPNPVPSGESASITCQSSKSLLHSNGKTYLNWYLQRPGQSPQFLIYWMSTRASGVSDRFSGSGSGTDFTLKISSVEAEDVGVYYCQQFLELPFTFGSGTKLEIK |
| 1.1 | 2.5 | – | CL0020308 (antibody, V domains shown) VH: QVQLKQSGPSLVQPSQSLSITCTVSGFSLTTYGIHWVRQSPGKGLEWLGVIWTGGSTAFNAAFMSRLSITKDNSKSQVFFKMNSLQADDTAIYYCAKVGFHSATDYWGQGTSVTVSS VL: DVLMTQTPLSLPVTLGDQASISCRSSQNLVHSNGNTYLEWYLQKPGQSPKLLIYKVSNRFSGVPDRFSGSGSGTDFTLKISRVEAEDLGLYYCFQGSHVPFTFGSGTKLEIK |
| 1.3 | 2.2 | – | CL0020309 (antibody, V domains shown) VH: QVQLKQSGPSLVQPSQSLSITCTVSGFSLTSYGVQWVRQSPGKGLEWLGVIWTGGTTDFNAAFKSRLSITKDNSKSQVFFKMNSLQADDSAIYYCAKIGFHSAVDYWGQGTSVTVSS VL: DVLMTQTPLSLPVSLGDQASISCRSSQNIVHSNGNTYLEWYLQKPGQSPKLLIYKVSNRFSGVPDRFSGSGSGTDFTLKINRVEAEDLGLYYCFQGSHIPFTFGSGTQLEIK |
| 1.6 | – | – | CL0020210 (antibody, V domains shown) VH: QIQLVQSGPELRKPGETVKISCKASGYTFTTYGMSWVKQAPGKGLKWMGWINTYSGLPRHSDDFKGRFAFSLETSASTAYLQINNLKNEDTATYFCAREVYYGSRKTAWFAYWGQGTLVTVSA VL: DLVMSQSPSSLAVSVGERITMTCKSSQSLLYSNDQKNYLAWYQQIPGQSPKLLLYWASTRESGVPDRFTGSGSGTDFTLTISSVKAEDLAVYFCQQYYNYPPTFGAGTKLELK |

— patent publication US20220119522A1
